Target: T1, MTBP (Mdm2 Binding Protein), Xenopus (Xenopus laevis (endogenous in egg …, UniProt Q6NRW0 1-860))
T1 construct: MTBP of Xenopus laevis, endogenous in egg extract; 96 kDa as printed; Printed N-terminal 125 residues (antigen MTBP-2): [residues removed]
T1 sequence (looked up): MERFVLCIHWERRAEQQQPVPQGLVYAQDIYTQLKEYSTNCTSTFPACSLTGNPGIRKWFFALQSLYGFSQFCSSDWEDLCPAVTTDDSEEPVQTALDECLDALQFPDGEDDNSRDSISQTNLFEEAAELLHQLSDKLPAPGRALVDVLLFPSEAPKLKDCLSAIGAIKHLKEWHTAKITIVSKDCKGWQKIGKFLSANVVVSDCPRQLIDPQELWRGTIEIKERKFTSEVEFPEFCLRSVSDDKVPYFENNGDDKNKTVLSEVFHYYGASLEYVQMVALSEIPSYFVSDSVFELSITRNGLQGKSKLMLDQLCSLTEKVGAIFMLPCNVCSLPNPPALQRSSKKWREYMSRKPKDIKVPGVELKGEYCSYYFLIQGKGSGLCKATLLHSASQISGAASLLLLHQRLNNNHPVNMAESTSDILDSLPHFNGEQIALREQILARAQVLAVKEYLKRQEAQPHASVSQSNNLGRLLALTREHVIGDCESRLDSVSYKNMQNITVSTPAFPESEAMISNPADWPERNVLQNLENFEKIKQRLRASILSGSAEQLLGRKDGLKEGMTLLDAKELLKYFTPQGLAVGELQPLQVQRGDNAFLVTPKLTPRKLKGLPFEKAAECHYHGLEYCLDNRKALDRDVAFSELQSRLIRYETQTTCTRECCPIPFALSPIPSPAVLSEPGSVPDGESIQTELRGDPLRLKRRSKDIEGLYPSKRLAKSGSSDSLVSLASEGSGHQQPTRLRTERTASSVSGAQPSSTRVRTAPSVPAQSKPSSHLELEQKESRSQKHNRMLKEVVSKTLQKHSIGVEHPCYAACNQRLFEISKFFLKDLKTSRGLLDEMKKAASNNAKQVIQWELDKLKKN
Assay: SEC + other: sucrose gradient centrifugation; 3% PEG-precipitated proteins of Xenopus egg extract in LFB1/50; Agilent BIO SEC-5 column at 4°C and 5-40% sucrose gradient; fractions immunoblotted for MTBP and Treslin; native mass by the Siegel and Monty equation
Settings: partners not purified

B1: Treslin/Ticrr, Xenopus (natural protein, UniProt D3IUT5 1-1985, looked up)
chain: MAPSHNVVLLVDTAESSDKSRLRRVSLRLLNFLACRAGLGQVRWSYRFLNSSGGRCRPPRRSDLRELGPRGWEEFEDELEACWERARNCRPSSTQSSRAQLLQTALMETLADFQWDRPDITSPTKPTLLRSRRGRIVAADEPLKDDSPDNFINPHSRNSIFLLSSCPHSGTELGQFAATSGDFSTQKVMDKLLPKSLQKIVSSKRVRVYWLDTSDWTQFGSSSDHSGYWTMVELMHQVEGRILPSESILGSSCQKAKTLPSFSVPPINIPFESVLNYLIFSEPDYQLWFPRRDGILFLTGKDGTKQLDCAVSLEPVSMIQKLSTSLMTIELKGTMQNCNLPLAGLRVETWLLHNSDCVQLQKLTKELMLKELHMIATVTLEDDVLPRTGILSPLSETAAVLNVICSERTLGLDNLHVQGSVHETDKETFSDLPDIVMSVLNHVYSSEDNTLAPDFPVPEWIKQELSQSSRWTSSVTARWYPLSGVSGASCNLMESFRLINAASSNCDEHLKFDQELTNYLSEFYQKKSVDDAGLGVHRENQKKSGLPRTPVRQKMKTLPRALQMLNAARLNVKAQKADSTLPVPNEKNSQMKRRSSGKQDNKPKQLKPTEFQSEDGLISYIKENYEEAVSLVDHSTMTWARDTLTTIKSYLKSIGSEQIETEAIDKVKLLFKTSKVIRQNYRNNQDKEVKLKECQLQVFLRLEMFVQCPVIQMDSDELELIIEEITDILRIVSLTEDPLFLTKFLEVDVLTQYIASVPKILADIYFSLGTQIPEVLVLVLPSDGDDSIMHEEKSVKSQPSTSRVPSVAPIGAETDQLEDLRTRSAKKRRSTALARHRSVAESSQSFRQIEVPKRQPNKENVQSNAVVVLEKLKLPLPAQPQKDAEAKVRRNLFIQETRSPSKRCSKMPRSQSVSAVESLKRKRSKSHDGSKDHHKLLTKKVSETPVHKQTANRLLLRQIKGRPSESNSNISIVEESPEKEIRDIDLRRSPRIKQLSLTRRNSSSFYASQPKSRNLERVNSATQLQQSRERPGSCLISEVKTPKRLLFGEVLGMISPPTTKRSRRILDMVNPVYKTPGKTPRKTPSKNIPNFEDQSGNMLVKSPCTPYTPRTPSRTPKRLKTPSKGSTERKKAAKNLGKLFSPSKPEEKSPLKLWGRRSERLAQMTPGKDGSPYKQSVCQTLMEVKTPQKLQRLESKDFRTPSRTPTRSNNTTPAKQSMQISNTPRKSDLKHPQEHESRGPSGYILWTPQKRILASVPHTPILQTPQKPISASVPRTPVCRTPQKAILSSVPSTPVCQTPNKAILTSVSRTPVYQTPQKAILASVMSTPVYQTPQKPVLASVPTTPILKTPQRSALASVSHTPSPKKYIMKELTVAITRMRECTPEKVLGSNLSSSATPSSALKSFCSEKTTSVCQTPKKSSIALLKPCDSLEFSGAPERLMDSLCSNKDSTKAETACTVPSQISTQMQNVINAGECTDSLSQTSVSSPSIPFTDKSLSPDLKDALSDVTSSKAEGVTIVSEKLDSSSMDSQEATDSFINSSQTEESIDISEARVVSTEASELKMKVLITRKPSGSGVSYLPTTPKCLGNVCSTSTYGLRCTPDRRQREAAARLGTPEIPAKFSTPKSHCKMIPQSIYEVELEMQESGLPKLRFKRTDSNSTIDMDVNKTPKISRKRKGDESPFNEKWCSKHAVRTEPACVSPSCVRTSHYTPGKSGIQTFICQSYTPNRCLSAAASPSQSDAGVPWTPSPKEKLSTDVINSWPRKKKASALCTNLLKCDKIPEYAEEDGGDFELEGVSKLLEKSPVIEQQSKVDGGTFGLRSRKRVFSLVSPTKETENPVKRVCTFNRHEDSSTATHRHQTKEEMEIFSSDQSRSSYLSSSQQSICDDVFNMSDFTPPSKVPKNPLSACGLLTLTQSPLLYKGKTPSSKRKEKIQDVFSDGDSDHGTPTLKRPTNPAAVSDDSPFRKVNPLRSISKTYSRKKLIT
notes: Treslin (Ticrr) of Xenopus laevis, endogenous in egg extract; 220 kDa as printed; no sites are mapped
stoichiometry N: 2 molecules of Treslin with 2 molecules of MTBP

Source: paper PMC8548084, “The role of DDK and Treslin–MTBP in coordinating replication licensing and pre-initiation complex formation” (Open Biology, 2021)
